Assay [1] has as its target T1, 重组SARS-CoV2核蛋白(NP) (SARS-CoV-2, UniProt P0DTC9 1-419). Description: double-antibody sandwich lateral-flow strip, paired with JS08.
The target in assay [2] is T1, 重组SARS-CoV2核蛋白(NP).
Assay [3] addresses 重组SARS-CoV2核蛋白(NP) (SARS-CoV-2, UniProt P0DTC9 1-419). This is another data set of the same source.

Numbering of substitutions follows the chain as printed.

B1: JS14 (antibody, V domains shown)
VH: EVQLLESGGGVVQPGRSLRLSCAASGFTFSSYGMHWVRQAPGKGLEWVAVIWYDGSNKYYADSVKGRFTISRDNSKNTLYLQMNSLRAEDTAVYYCARDGSGSYYWGSLDYWGQGTLVTVSS
VL: not shown
Take B1: the “检测限 (detection limit for NP)” value in the assay with 重组SARS-CoV2核蛋白(NP) [1] is less than 2 ng/mL. In the assay with 重组SARS-CoV2核蛋白(NP) [2], this molecule had a dissociation constant (Kd) of 178 pM, a dissociation rate constant (koff) of 0.000221 s⁻¹ and an on-rate constant (kon) of 1.24e+06 M⁻¹ s⁻¹.

B2: JS06 (antibody, V domains shown)
VH: EVQLLESGGGVVQPGRSLRLSCAASGFTFSSYGMHWVRQAPGKGLEWVAVIWYDGSNKYYADSVKGRFTISRDNSKNTLYLQMNSLRAEDTAVYYCARAAYGPYYGMDVWGQGTTVTVSS
VL: not shown
In the assay with 重组SARS-CoV2核蛋白(NP) [3], B2 yielded a Kd of 16100 pM, a koff of 0.00258 s⁻¹ and a kon of 161000 M⁻¹ s⁻¹.

B3: JS01 (antibody, V domains shown)
VH: QVQLVESGAEVKKPGSSVKVSCKASGGTFSSYAISWVRQAPGQGLEWMGGIIPIFGTANYAQKFQGRVTITADESTSTAYMELSSLRSEDTAVYYCARGGWRSSGYHDYSYYGMDVWGQGTTVTVSS
VL: not shown
In the case of B3, the “检测限 (detection limit for NP)” value with 重组SARS-CoV2核蛋白(NP) [1] is less than 2 ng/mL. Moreover, in the assay with 重组SARS-CoV2核蛋白(NP) [2], the Kd came out at 220 pM, the dissociation rate constant (koff) is 0.000479 s⁻¹ and the kon was 2.18e+06 M⁻¹ s⁻¹.

B4: JS08 (antibody, V domains shown)
VH: QVQLVQSGPGLVKPSETLSLTCTVSGGSISSYYWSWIRQPPGKGLEWIGNIYYSGSTDYNPSLKSRVTISVDTSKNQFSLRLSSVTAADTAVYYCAREQFSGGDYEGFDFWGQGTLVTVSS
VL: QSVLTQEPSVSGAPGQRVTISCTGSSSNIGAGYDVHWYQQLPGTAPKLLIYGNSNRPSGVPDRFSGSKSGTSASLAITGLQAEDEADYYCQSYDSSLSGWVFGGGTKLTVL
As to B4, in the assay with 重组SARS-CoV2核蛋白(NP) [3], binding was characterised by a dissociation constant (Kd) of 190 pM, the koff was determined as 5.77e-06 s⁻¹ and the kon came to 30300 M⁻¹ s⁻¹.

B5: JS05 (antibody, V domains shown)
VH: EVQLLESGGGVVQPGRSLRLSCAASGFIFSSYGMHWVRQAPGKGLEWVAVIWYDGSNKYYADSVKGRFTISRDNSKNTLYLQMNSLRAEDTAVYYCARDLRGPTGWTFDYWGQGTLVTVSS
VL: ENVLTQSPATLSLSPGERATLSCRASQSVSNYLAWYQQRPGQAPRLLIYDSSNRATGIPARFSGSGSGTDFTLTISSLEPEDFAVYYCQHRSNWKITFGQGTRLEIK
B5: the “检测限 (detection limit for NP)” value in the assay with 重组SARS-CoV2核蛋白(NP) [1] was less than 2 ng/mL. For the same molecule, in the assay with 重组SARS-CoV2核蛋白(NP) [2], binding was characterised by a dissociation constant (Kd) of 409 pM, the koff was 0.000243 s⁻¹ and the kon is 594000 M⁻¹ s⁻¹.

B6: JS12 (antibody, V domains shown)
VH: B1 VH
VL: B5 VL with N31S, R39K, D50G, S51A, H90Q, K95P, I96W, R103K, L104V
On to B6, for which the “检测限 (detection limit for NP)” value in the assay with 重组SARS-CoV2核蛋白(NP) [1] was less than 2 ng/mL. For the same molecule, in the assay with 重组SARS-CoV2核蛋白(NP) [2], the dissociation constant Kd came out at 150 pM, the off-rate constant (koff) is 7.33e-05 s⁻¹ and the kon amounted to 488000 M⁻¹ s⁻¹.

B7: JS11 (antibody, V domains shown)
VH: EVQLLESGGGVVQPGRSLRLSCAASGFTFSSYGMHWVRQAPGKGLEWVAVIWYDGSNKYYADSVKGRFTISRDNSKNTLYLQMNSLRAEDTAVYYCVGPLMVRGVIIPWGQGTLVTVSS
VL: not shown
B7: in the assay with 重组SARS-CoV2核蛋白(NP) [2], the affinity, expressed as Kd, was 292 pM; the koff came to 5.62e-05 s⁻¹; the kon was 193000 M⁻¹ s⁻¹.

B8: JS13 (antibody, V domains shown)
VH: QVQLVQSGAEVKKPGSSVKVSCKASGGTFSSYAISWVRQAPGQGLEWMGGIIPIFGTANYAQKFQGRVTITADESTSTAYMELSSLRSEDTAVYYCARGGWVICSSTSCYTKYSYYGMDVWGQGTTVTVSS
VL: QSVLTQPPSVSAAPGQKVTISCSGSSSNIGNNYVSWYQQLPGTAPKLLIYDNNKRPSGIPDRFSGSKSGTSATLGITGLQTGDEADYYCGTWDSSLIARLFGGGTKLTVL
Take B8: the “检测限 (detection limit for NP)” value with 重组SARS-CoV2核蛋白(NP) [1] is less than 2 ng/mL. In the assay with 重组SARS-CoV2核蛋白(NP) [2], this molecule had a Kd of 120 pM, a koff of 9.66e-05 s⁻¹ and a kon of 805000 M⁻¹ s⁻¹.

In general, Kd refers to a measure of binding affinity in units of concentration. The low end stands for higher affinity, the high end for lower affinity. For orientation: koff means the rate constant with which the complex falls apart. A higher koff goes with a short-lived complex. As usually defined, the kon is the rate constant with which the complex forms.
